Experimental findings from patent publication EP4803150A2 (Lyvgen Biopharma Holdings Limited, dated 2026) are described below.

This experiment deals with T1, PD-1 (human, UniProt Q15116 25-167, limits assumed).
T1 construct: On Jurkat T cells expressing human PD-1 in the reporter assay
Kind of experiment: FCM or ELISA, graded. On the technique in general: An ELISA detects its analyte on a solid surface through an enzyme-linked reagent.

T1 sequence (Q15116 25-167 limits assumed): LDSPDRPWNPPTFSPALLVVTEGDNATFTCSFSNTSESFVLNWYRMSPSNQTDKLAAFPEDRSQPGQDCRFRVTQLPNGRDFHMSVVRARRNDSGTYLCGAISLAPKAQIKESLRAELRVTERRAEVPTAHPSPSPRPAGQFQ

B1: Ly2904 (multi-specific antibody)
chain 1: QVQLVQSGAEVKKPGASVKVSCKASGYTFTSYVMHWVRQKPGQGLEWIGYINPYNEGTESTDKFKGRATMTSDKSTSTVYMELSSLRSEDTAVYYCASIYYGYEGTYFGVWGQGTLVTVSSASTKGPSVFPLAPSSKSTSGGTAALGCLVKDYFPEPVTVSWNSGALTSGVHTFPAVLQSSGLYSLSSVVTVPSSSLGTQTYICNVNHKPSNTKVDKKVEPKSCGGGGSGGGGSGGGGSGGGGSEVQLVESGGGLVQPGGSLRLSCAASGFTFSTYAMNWVRQAPGKGLEWVGRIRSKYNNYATYYADSVKGRFTISRDDSKNSLYLQMNSLKTEDTAVYYCVRHGNFGNSYVSWFAYWGQGTLVTVSSGGGGSDKTHTCPPCPAPELLGPSVFLFPPKPKDTLMISRTPEVTCVVVDVSHEDPEVKFNWYVDGVEVHNAKTKPREEQYNSTYRVVSVLTVLHQDWLNGKEYKCKVSNKALGAPIEKTISKAKGQPREPQVYTLPPSREEMTKNQVSLWCLVKGFYPSDIAVEWESNGQPENNYKTTPPVLDSDGSFFLYSKLTVDKSRWQQGNVFSCSVMHEALHNHYTQKSLSLSPGKGGGGSGGGGSGGGGSGGGGSQVTLKESGPALVKPTQTLTLTCTFSGFSLSTSGTCVSWIRQPPGKALEWLATICWEDSKGYNPSLKSRLTISKDTSKNQAVLTMTNMDPVDTATYYCARREDSGYFWFPYWGQGTLVTVSS
chain 2: QVQLVQSGAEVKKPGASVKVSCKASGYTFTSYVMHWVRQKPGQGLEWIGYINPYNEGTESTDKFKGRATMTSDKSTSTVYMELSSLRSEDTAVYYCASIYYGYEGTYFGVWGQGTLVTVSSASTKGPSVFPLAPSSKSTSGGTAALGCLVKDYFPEPVTVSWNSGALTSGVHTFPAVLQSSGLYSLSSVVTVPSSSLGTQTYICNVNHKPSNTKVDKKVEPKSCGGGGSGGGGSGGGGSGGGGSQAVVTQEPSLTVSPGGTVTLTCRSSTGAVTTSNYANWVQQKPGQAPRGLIGGTNKRAPWTPARFSGSLLGGKAALTITGAQAEDEADYYCALWYSNLWVFGGGTKLTVLGGGGSDKTHTCPPCPAPELLGPSVFLFPPKPKDTLMISRTPEVTCVVVDVSHEDPEVKFNWYVDGVEVHNAKTKPREEQYNSTYRVVSVLTVLHQDWLNGKEYKCKVSNKALGAPIEKTISKAKGQPREPQVYTLPPSREEMTKNQVSLSCAVKGFYPSDIAVEWESNGQPENNYKTTPPVLDSDGSFFLVSKLTVDKSRWQQGNVFSCSVMHEALHNRFTQKSLSLSPGKGGGGSGGGGSGGGGSGGGGSNIQMTQSPSSLSASVGDRVTITCKAGQNVNNYLAWYQQKPGKAPKVLIFNANSLQTGVPSRFSGSGSGTDFTLTISSLQPEDFATYYCQQYNSWPTFGGGTKVEIK
chain 3: EIVLTQSPATLSLSPGERATLSCRASSSVSYMHWYQQKPGQAPRPWIYATSNLASGIPARFSGSRSGTDYTLTISSLEPEDFAVYYCQQWSSNTLTFGGGTKVEIKRTVAAPSVFIFPPSDEQLKSGTASVVCLLNNFYPREAKVQWKVDNALQSGNSQESVTEQDSKDSTYSLSSTLTLSKADYEKHKVYACEVTHQGLSSPVTKSFNRGEC
notes: anti-B7H3/CD3/PD-1
Turning to B1, the binding result is on record as “binds”.
